In publication PMC13129248:

Molecular target: DENV C (dengue virus capsid protein) (Dengue virus 2, strain New Guinea, UniProt O92835 1-100)
Assay: Trp fluorescence quenching and lifetime

AAAGACCAACACCAAGAGGCACAGTAATGGACATT (ssDNA) [C]: binds.
